Experimental data from the domain aggregation screens of Martell et al. (2025).

Assay: soluble fraction after stress (log2 fold change); higher = more stays soluble; pooled small domains, quantitative proteomics
Details: stress: 50 degC
Procedure, shortened: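 Custom libraries of small protein domains were pooled and measured in a high-throughput format, with quantitative proteomics as the read-out. Each library was stressed at 50°C. The value is the log2 fold change in the amount of each protein that stays soluble after stress, used as a measure of aggregation propensity; higher values mean more of the protein stays soluble.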

Sequence: HMTRQPSAKEHAVLTAVKEGLRRDGRAPTVRALADMTGAASTSTVQRRISALIDLGLLRRTDGTLEVVE
- soluble fraction (log2): -0.000402

Sequence: HMTRRVIRAPAAGIMRSNVKLGDLVKEGDVIAWIGEHEIKAPLTGMVRGLLNDGLAVVGGFKIGDI
- soluble fraction (log2): -0.175

Sequence: HMTSEPFYNPRRPQPYWTSETDRHTTYADAVRALAREFSETPEWVESNMGETNDLQEIRRNLSRVKSG
- soluble fraction (log2): 0.144

Sequence: HMTSESWAEKSRSLAAAGLIVMGRDAQLKIEGLTNLDPLIEAATASSTRLLTGQTIDELLTIVP
- soluble fraction (log2): -0.265

Sequence: HMTSEVLTNATIVKMVKAKLSDDIIIDEINNARVNFDVSPEGIKSLTAQNVTEPVIETMKKAVAAQESI
- soluble fraction (log2): 0.479

Sequence: HMTSFDVMLKSAGANKLAVVKLVKELTGLGLKEAKDIVDAAPSKVKEGVSKEEAEELQKQLTGAGAEVEL
- soluble fraction (log2): 0.0299

Sequence: HMTSHYTVLGVKETDTIEMIRTHYRKLILQFHPDKNQHLTEEERKKLEVKVLQIREAYEKIKKEK
- soluble fraction (log2): -0.214

Sequence: HMTSIISLAKARSIALQKVPGATSKNIHLSLDDEDDKQVYEGEIKYKQMEYVFEIDAKTGTFLKWTSERD
- soluble fraction (log2): -1.66

Sequence: HMTSKTLSAVEGEGLRLDKFLSNQLPELSRTKIQKMINDGLVFVNNTEAKASLILDGSEFIAYTVPD
- soluble fraction (log2): -0.0541

Sequence: HMTSLAEQAYRHIRDKLSNGAFVPGEQLVNRVLATEIGVSVIPVREAINRLATEGLVKHVPGSGAFVRQ
- soluble fraction (log2): 0.0904

Sequence: HMTSLYDILGIAKTADSQTIKTAFKKKALLYHPDKNNGNLKKEEIFKKISTAYQILSDPKSRANYDLSIA
- soluble fraction (log2): -0.115

Sequence: HMTSMNNTEELIDMANKIIDNNPNMVLKYKEGRNVLDFFIGQVMKETKGRANPSATSKIFKDLLEK
- soluble fraction (log2): 0.169

Sequence: HMTSNKTVPYSELKGLISTGKIEYVGIGNTQIRAVSKSGAGIVTYTARRVIPDDTLIPELEKNGIAYGGI
- soluble fraction (log2): -0.108

Sequence: HMTSNSLNLKDEISAFLTKNAGISYSAERIAHALNMDNADQFTPIIQTLAQLEREKKVRVTDKGEFEAVIK
- soluble fraction (log2): 0.0897

Sequence: HMTSSKISFIDPVNGGKVSVSLENSTLEKLQNRFGVNSVVRNEAGDVELKDKAQEFVAGWFADIAYTRG
- soluble fraction (log2): 0.0813

Sequence: HMTTAGTAIVQTGNSGKLNLREQAYANAGILGRYSNGTAVTVLQKGAAWSYVEVKGQKGYMMSKFLKFTS
- soluble fraction (log2): -0.0681

Sequence: HMTTEIVRMKKDVKIGQEITAKDIEVVEVGAYNLPDEVIRSSEEVVGKYVSSELLKGEYVLPSKISDTP
- soluble fraction (log2): 0.0729

Sequence: HMTTEPYILTRMPDGSIKAEPNLNYKGPEQKPGSNIQVKGADGRIYLVPIDGQGKPGKPQLVD
- soluble fraction (log2): 0.116

Sequence: HMTTGLETYPGKIAVVSDDFIDGEGRVQLDGALWRAKTKDHQQLKQGDHVTIVNVKGLTLTVMPDD
- soluble fraction (log2): 0.23

Sequence: HMTTGREGLIGAVGTVRQAIAPEGYVFVEGELWRAKSPAGPLEPGTTVRVIAIDGLTLTVMPAE
- soluble fraction (log2): -0.348

Sequence: HMTTGTVKWFNDAKGFGFITPDDRSVDVFVHYSNIVGQSGRRTLMEGERVEYEAIEGPKGPQATDVARA
- soluble fraction (log2): -0.304

Sequence: HMTTIFDNINGELRRRHLTQQDLAKTIEIDRRTWSKWQDKNDMPASVLLQIAKWLNVTLDYLTRD
- soluble fraction (log2): -2.08

Sequence: HMTTIKLTQEDVEKIKSLPKRTFLIGNLQQTGLYDEKTRRFYYLDANGEWNGRLAIINTPPPPPPPP
- soluble fraction (log2): 0.199

Sequence: HMTTKYMVLVNWVKEKVRTNELKTGEKLYSEHEFSRMFHMSRQTVRHGISILERENIVERRQGSGTFIKDA
- soluble fraction (log2): -3.06

Sequence: HMTTKYVAVHESKDGYWTIASKPSSKEDAEAMLGGTPKNEVGKVVTLEEAKAHKKTLGEEYLYE
- soluble fraction (log2): 0.272

Sequence: HMTTMTTGQRIAAKRKEQGLSQENLGEQLGVSRQAIYKWESDASLPDIDKLIALSRLFGVSTDYLLLE
- soluble fraction (log2): -0.41

Sequence: HMTTQIPEEVQKRVNQFYEALDEEDYGEAKQILEELEKATAPDHPTLIQMRTRYEFDTMELR
- soluble fraction (log2): 0.186

Sequence: HMTTTPAERQRTILRSLNRVDPVSVDALARLTGVSVVTIRRDLSDLASRDLIRRVHGGALLPTR
- soluble fraction (log2): -0.917

Sequence: HMTTYSVDLGDIRAVADSDGKLVELTLHAAVTTHYSHSELADRLNLAFTALREEAQADYETRY
- soluble fraction (log2): 0.127

Sequence: HMTTYTGVVTGSGVNVRSGAGTSYPVVGSKTMGDVVTITETVSADGMIWGKIDIGWISMNYVRM
- soluble fraction (log2): -0.75

Sequence: HMTVAQEIEARRATIRSSDPAEMARFIRWLIMEGHTEPAADELKKYAENFPEASATTKQLQALLAAR
- soluble fraction (log2): -0.177

Sequence: HMTVDIADALRVLGLSDAPDWSDVRAAHRRAIVRTHPDAGGSAGDAARVNQAFDLLRKISGNGERPIPG
- soluble fraction (log2): 0.154

Sequence: HMTVDTSELEEMIDDLIKEHPNEWERYSSGEKKVQGFFVGQVMKATSGQADGKAINQILSKRVKS
- soluble fraction (log2): 0.354

Sequence: HMTVDYDKFTKDTVVQHNKFGKGVIIMTSGDGEDKIASIAFQGLGVKRFSLAIAASNLKILGKVNED
- soluble fraction (log2): -0.133

Sequence: HMTVEVFQSLVQTFREMSPRKAASILEELKRDLAVEILLHMPEDGVAAILARMDPARAARLTEQLALEKD
- soluble fraction (log2): -0.979

Sequence: HMTVGEAHLEEVYLKVLKQVEEQGTALIRTTDVETGRPAAGIRRRYMRGTLPDEWVAKFEALPGWTWAPG
- soluble fraction (log2): -0.879

Sequence: HMTVGEKIQKYRKDLDLSQEELGQKLLVSRQTISLWEKDQTVPTIDNLIRLREIFGVSVDEILGF
- soluble fraction (log2): -0.409

Sequence: HMTVIARQIPPLVPRMLDGLEAFIKLDVPFEEKERLARVQMLRSSLDRDNLDTAEIFRAVLEAYNIELQY
- soluble fraction (log2): 0.0196

Sequence: HMTVKKEIAKVKPTPLGWLRVRETPSLNGAEITKVNTGESYDVLDKETGWIKIKVSETVEGWVSDAYIELS
- soluble fraction (log2): 0.236

Sequence: HMTVLPTENDAKALVGLNEDEAVKIIEGNGWTYRIGSRDGEQFMLTEDYSTSRLTLGIEKSIVVTATI
- soluble fraction (log2): -0.151

Sequence: HMTVLVPNLTGKTLLEAEILLDQAGLKKGDVYSESNKNVPKDHIIRQKPAPNTKIQKGATIDIYRSLGPE
- soluble fraction (log2): 0.133

Sequence: HMTVNLPPKQKAAILLMSLPPEVSAQLFKELGPDEVHAITLEISKLPPISPDVRAQVIDEFLHSS
- soluble fraction (log2): -0.152

Sequence: HMTVSIGSVIARERRLRGDTQQELAERLGVSKAAVSKWEVGQSIPDVTLLPRIAAYFSLTLDEL
- soluble fraction (log2): -2.18

Sequence: HMTVVLPGESLTVNIIQEGKELGQGVGYLDDGTMVVIEDGRRYIDQTIEVTVTRVLQTVAGRMIFAQLT
- soluble fraction (log2): -0.646

Sequence: HMTWDSFIGYTVTDVQKGYLGEITDVDETTINVLLRVDHKGEELLIPAVEELITEADHEARSLTVSLPEGL
- soluble fraction (log2): -0.0571

Sequence: HMTYFIADLIGLQVYTDSGELLGKVDDIYNSGSADIYVVKDELGKQILLPGIKDVIKQIDVDNEKIIVHLI
- soluble fraction (log2): -0.885

Sequence: HMTYIQSNLKFLRNKMNISQEELAKRLFVTHQTVSNHENGKSQPNFEMIEKYASFFNVPFEDLIHKDLSL
- soluble fraction (log2): -0.0206

Sequence: HMTYNIPEHYQTIDVKEYVRKLVSDGDSDQIGRVEMELTEFETRNLFPVLKVLIYIIDTMRK
- soluble fraction (log2): -2.45

Sequence: HMTYQTVRYGSTGSAVRQLQSALNQKGYQLSEDGIFGAKTRAAVRDYQKKNGLLLDGIAGSQTWNHLMS
- soluble fraction (log2): 0.224

Sequence: HMTYSSESVRYRIKSLIDNETIDEILSDDKIVNILKSQGIDVARRTVAKYREAMGLASSIQRRREKKSA
- soluble fraction (log2): -0.375

Sequence: HMVAGGTVSRKLSIETGLPKRKSLIGSWLDQNSVWHNIISVRHRNGYGDGVNYGFYLRSLLTSEGNLAW
- soluble fraction (log2): -0.114

Sequence: HMVAGHLQTKKGYYYIVLNMRTDTGARKTKWIATGIPEGGKKNLKQAEELLAKTRYTYEDMVI
- soluble fraction (log2): -0.792

Sequence: HMVAPKTEEQQKMFLESIVTKRQAETLIEKYPNIVQDIIDGTDNVDLANLKGIGEHTYNLIKEKVLSNY
- soluble fraction (log2): 0.279

Sequence: HMVAPPILNITTHIFAEEADLRMVMINGVTRREGDSLGENHRLLEITERGLILIFHNKQYTLDV
- soluble fraction (log2): -3.68

Sequence: HMVAQEVPYSTFVMRLDRNEVDAVKIIDGNEIEGTFKSPNGDLVQFKTLIPYQDTELMPLLKQKGVRISGS
- soluble fraction (log2): 0.386

Sequence: HMVARPVLQIGSTGADVTAIQARLGVSQTGYFGVLTAAAVTNFQRSNGIAASGKVGATTWAKLMQSA
- soluble fraction (log2): -1.14

Sequence: HMVAVSQEEATKMALERVSGASAQDIRIQLEFDDGIQKYEGDIIYNGREYEFEIDANTGTFLEWSEERA
- soluble fraction (log2): -0.489

Sequence: HMVDETDVPTFTDMTLEEAQNEAKQRNLKLEITESPSDKEKDTILEQDPEPGKTVASGSTVKLTVSNGEE
- soluble fraction (log2): -0.14

Sequence: HMVDFHAAYSILRIAPGASWQEIQAAYEKLNDAWREDRYPQVPFWNEKAAFKRREVEQAYEKLRKFHALRH
- soluble fraction (log2): -0.845

Sequence: HMVDFVNVVVPVKANYGGEAVVEFLDERLSEFGTEGIYRIELQGETMENPSPDYSQLKAKYHISEIVDRT
- soluble fraction (log2): 0.08

Sequence: HMVDKDFKPLYASLERLDSTSIIEILDSNRIDYRIDQRSGALLVDADQIHQARLSLASAGMPA
- soluble fraction (log2): -0.116

Sequence: HMVDLANIDPIASSIKLNGAEADASFNTLEDRRVSVSGSFEENKNYTMEYTFKDYAGGSVTGTLDFKTLA
- soluble fraction (log2): 0.137

Sequence: HMVDLAPTEEIIKNLPNNSRSLLIPTLQKIQNAYRYLPSPAMELLSEFLNVTRAEIYGVISFYPSLL
- soluble fraction (log2): 0.0871

Sequence: HMVDLLDETLIEFYAFANNLIKDLETNSEKYGGMSQFEKELIFNEQITQYQRKLKIDLQDEVG
- soluble fraction (log2): -1.54

Sequence: HMVDPRLRSLTPQERRILEHIAEGLTNRQIAEDMFLAEKTVKNYVTSILDKLGMDSRTQAAVYAATHPT
- soluble fraction (log2): -0.252

Sequence: HMVDSTDLIPLLIKVSREKQGNKKLNWGEWLKIPENIYLKQINENIARKVFEDTNDLIDEAVNYINRKRRN
- soluble fraction (log2): -0.602

Sequence: HMVDTEVFSRLLRKVLAGDVTSAIRILEELIVGGRELSQFVGDFTWYMRNLLLVKTSDNPEEA
- soluble fraction (log2): -0.397

Sequence: HMVDYYEILGVSPDASRKDIENAWRKKMREAHPDMGGSEDKAQLLNEAHKVLSDESARAEYDASR
- soluble fraction (log2): 0.103

Sequence: HMVELPDLIGKSKRLAFTQLEISGLKIGKIIYEPDLAKDAVLKILYNGKIVKAGEQLPRFATVDLVLG
- soluble fraction (log2): -0.0407

Sequence: HMVEMIGLQMVGKSGIASTVLRPSGKVRIDGVVYDAVSEDGFIEKGQAVKVLRYETGQVYVEKL
- soluble fraction (log2): -0.254

Sequence: HMVEPIEESISQLSLLLQSLYEDGKSEVSFEELIRSDRSRVSLFLALLFMAQRGNVYLEQEELFGDLRVKN
- soluble fraction (log2): 0.0123

Sequence: HMVEREYRLEVPPEAEGKRLDQFLVNQPVQLSRSQVQHLIQNGLVLVNAKTRRSSYRVHTGDIIEMQVPA
- soluble fraction (log2): 0.327

Sequence: HMVERQVTVPNLTGLGVADAQRLAQSMELDIEVLGEQESTDARPGAVLQQTPGAGTRAAAGSVVSVLV
- soluble fraction (log2): 0.0752

Sequence: HMVEVPEQLRDLLERSIEDLAELSVRSRNSLQKENIQTLGDLVQRTEEEMLGIENFGKKSLTEIAAFL
- soluble fraction (log2): -0.101

Sequence: HMVEYFDDENLDAFIGRESDSYTEKEIEQFREILYTMNQKEVADWNRSLTIRGINIPNDLKDEMIMMI
- soluble fraction (log2): -0.438
